Measurements taken from publication PMC13315262, “In silico discovery of nanobody binders to a G-protein coupled receptor using AlphaFold-Multimer” (Nature Communications, 2026).
Substitutions are numbered along the chain they refer to. In names and notes the source's numbering stands.

B1: MAS-related GPR family member X2 (MRGPRX2), endogenous on ROSA mast cells (receptor, human (endogenous in ROSA), UniProt Q96LB1 1-330, looked up)
chain: MDPTTPAWGTESTTVNGNDQALLLLCGKETLIPVFLILFIALVGLVGNGFVLWLLGFRMRRNAFSVYVLSLAGADFLFLCFQIINCLVYLSNFFCSISINFPSFFTTVMTCAYLAGLSMLSTVSTERCLSVLWPIWYRCRRPRHLSAVVCVLLWALSLLLSILEGKFCGFLFSDGDSGWCQTFDFITAAWLIFLFMVLCGSSLALLVRILCGSRGLPLTRLYLTILLTVLVFLLCGLPFGIQWFLILWIWKDSDVLFCHIHPVSVVLSSLNSSANPIIYFFVGSFRKQWRLQQPILKLALQRALQDIAEVDHSEGCFRQGTPEMSRSSLV
notes: MAS-related GPR family member X2 (MRGPRX2), a GPCR, endogenously expressed at high levels on the ROSA mast cell line; source: endogenous, on ROSA mast cells (immortalized mast cell line)
B2: human N-terminal FLAG-tagged MRGPRX2, on transfected HEK293T cells (receptor, UniProt Q96LB1 1-330, looked up)
chain: B1 chain
notes: MRGPRX2, human, N-terminal FLAG-tagged, in a pcDNA3.1 expression vector; also called FLAG-MRGPRX2; wild type MRGPRX2; source: HEK293T, transiently transfected (pcDNA3.1), on cells; not shown: FLAG, N-terminal, kept
B3: Nanobody Sim8619 (rank 1) with an R102A mutation (VHH)
VHH: QVQLQESGGGLVQAGGSLRLSCAASGSIFYIRGMGWYRQAPGKERELVAGIDVGAITYYADSVKGRFTISRDNAKNTVYLQMNSLKPEDTAVYYCAVWAYTAAGYTTVYAYWGQGTQVTVSS
notes: as the nanobody of m5 (Sim8619); the ROSA cell assay is told only for Fc fusions, nanobody variants are told as monomers from E. coli; also called R102A mutant; Sim8619 R102A
B4: Nanobody Sim8619 (rank 1), monomeric (monovalent format) (VHH)
VHH: B3 VHH with A102R
notes: source: E. coli BL21-DE3 (pET-26b), purified (protein A, Ni-NTA); not shown: V5, C-terminal, kept
B5: Nanobody Sim4784 (rank 7), monomeric (monovalent format) (VHH)
VHH: QVQLQESGGGLVQAGGSLRLSCAASGTISPPTYMGWYRQAPGKERELVASIGAGSNTNYADSVKGRFTISRDNAKNTVYLQMNSLKPEDTAVYYCAAIFGRLWYHLYWGQGTQVTVSS
notes: as for B4
B6: Nanobody Sim9877 (rank 5), monomeric (monovalent format) (VHH)
VHH: QVQLQESGGGLVQAGGSLRLSCAASGYISSFPVMGWYRQAPGKERELVAAIGSGGITYYADSVKGRFTISRDNAKNTVYLQMNSLKPEDTAVYYCAVAGYNIGSYYYWGQGTQVTVSS
notes: as for B4

Key:
Conditions in all cases: one partner purified
[1] = molecular target: T1, Nanobody Sim8619 (rank 1), human IgG1 Fc fusion; assay: flow cytometry on cells; dose response of nanobody on ROSA mast cells (100,000 cells per well), 30 min at 4 °C; anti-human IgG Fc-AF488; MFI; for Kd the non-specific signal was the MFI with Nb 60
T1 construct: (GGS)3 linker between the nanobody and the Fc; cloned into pFUSE-CHIg-hG1 with H435A in the Fc; also called Nb Sim 8619; source: Expi293F, transiently transfected, purified (protein A); not shown: Fc (human IgG1, H435A), C-terminal, kept

[2] = molecular target: T2, Nanobody Sim4784 (rank 7), human IgG1 Fc fusion; assay: as above
T2 construct: (GGS)3 linker between the nanobody and the Fc; cloned into pFUSE-CHIg-hG1 with H435A in the Fc; source: Expi293F, transiently transfected, purified (protein A); not shown: Fc (human IgG1, H435A), C-terminal, kept

[3] = molecular target: T3, Nanobody Sim9877 (rank 5), human IgG1 Fc fusion; assay: as above
T3 construct: (GGS)3 linker between the nanobody and the Fc; cloned into pFUSE-CHIg-hG1 with H435A in the Fc; also called Nb Sim9877; source: Expi293F, transiently transfected, purified (protein A); not shown: Fc (human IgG1, H435A), C-terminal, kept

[4] = molecular target: T1, Nanobody Sim8619 (rank 1), human IgG1 …; assay: flow cytometry on cells; nanobody-Fc at the indicated concentrations, 1 h at 4 °C, on HEK293T cells transfected with FLAG-MRGPRX2, MRGPRX2 E164A D184A or empty vector; HBS + 2% FBS + 0.05% BSA; anti-human Fc-AF647; non-specific signal from empty-vector cells
[5] = molecular target: T2, Nanobody Sim4784 (rank 7), human IgG1 …; assay: as above
[6] = molecular target: T3, Nanobody Sim9877 (rank 5), human IgG1 …; assay: as above
[7] = molecular target: B1; assay: flow cytometry on cells; dose response of nanobody on ROSA mast cells (100,000 cells per well), 30 min at 4 °C; anti-human IgG Fc-AF488; MFI; for Kd the non-specific signal was the MFI with Nb 60
[8] = molecular target: B2; assay: flow cytometry on cells; monomeric nanobody or variant with V5 tag, 1-2 h at 4 °C, on HEK293T cells transfected with FLAG-MRGPRX2, FLAG-MC4R, FLAG-CXCR3 or empty vector; HBS + 0.1% BSA + 2 mM calcium; anti-V5-APC
[9] = molecular target: T4, FLAG-MC4R, on transfected HEK293T cells (Homo sapiens (Human)., UniProt P32245); assay: as above
T4 construct: source: HEK293T, transiently transfected, on cells
T4 sequence (P32245 whole entry): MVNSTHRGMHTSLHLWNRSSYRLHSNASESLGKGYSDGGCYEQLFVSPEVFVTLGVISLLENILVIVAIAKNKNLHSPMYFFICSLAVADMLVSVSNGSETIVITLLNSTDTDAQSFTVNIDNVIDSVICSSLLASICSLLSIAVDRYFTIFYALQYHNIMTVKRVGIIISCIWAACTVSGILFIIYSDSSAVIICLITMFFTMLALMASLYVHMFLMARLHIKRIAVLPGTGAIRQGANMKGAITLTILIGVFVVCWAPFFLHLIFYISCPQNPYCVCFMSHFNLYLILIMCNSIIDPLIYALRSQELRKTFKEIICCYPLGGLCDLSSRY

## B1
[1]
  Kd: 100 nM
[2]
  Kd: 50 nM
[3]
  Kd: 20 nM

## B2
[4]
  Kd: 200 nM
[5]
  Kd: 80 nM
[6]
  Kd: 160 nM

## B3
[7]
  EC50: 210 nM

## B4
[8]
  binding result: binds

## B5
[9]
  binding result: binds
[8]
  binding result: binds

## B6
[8]
  binding result: binds
